Patent CN117820472A (VAZYME MEDICAL CO LTD; HUNAN NOVAZYME MEDICAL TECH CO LTD, dated 2024)
Ends that are not written are not given here.

Biological target: T1, Tau 181多肽 (also: biotin coupling for SA coating, place not given here)
T1 peptide: CPPAPKTPP
Assay: indirect ELISA, cell supernatants on SA+biotin peptide plates (m1 as a member of the 80 antibodies)

binding result: no binding
B1: Anti-p-Tau 181-rRmab-1 (antibody, V domains shown)
VH: CQSVEESGGRLVTPGTPLTLTCTVSGFSLSIYAMSWVRQAPGKGLEYIGYIVSSGSTYYASWAKGRVTISKTSSTTVDLKITSPATEDTATYFCARGSITGFTRLELWGQGTLVTVSS
VL: DIVMTQTPASVEAAVGGTVTIKCQASESISSGLAWYQQKPGQPPKLLIYGASTLASGVPSRFKGSRSGTEYTLTISDLECADAATYYCQSYYYSSGSSLLYGFGGGTEVVVK
notes: Recombinant rabbit monoclonal antibody from single B cell cloning, expressed in HEK293 cells and purified on protein A. Only the variable domains are printed
